Source: patent publication US20040063912A1
One block for each substance: values may come before it.

What was measured:
FcRn = experiment: assay not stated; compared with EPO-Fc with native Fc
[1] = biological target: purified, soluble huFcRn (human) (UniProt P55899); experiment: Biacore (SPR), purified soluble huFcRn
EPO receptor (EpoR) = experiment: in vitro binding to EpoR; method not stated

reduction in FcRn binding (FcRn): > 90%
Substance: mutated EPO-Fc (Fc modified in three critical amino acid residues in the Fc domain: I253A, H310A, and H435A) (Fc fusion)

Kd [1]: 8 nM
Substance: IgG1 (antibody)

Kd (EPO receptor (EpoR)): 0.2 nM
Substance: native huEPO (from UniProt P01588 28-193) (ligand)
